Test results published in paper PMC5308204 (Nature genetics, 2010).

T1: HA-tagged VPS33B (L30P) mutant (human, UniProt Q9H267 1-617, L30P)
T1 sequence (looked up): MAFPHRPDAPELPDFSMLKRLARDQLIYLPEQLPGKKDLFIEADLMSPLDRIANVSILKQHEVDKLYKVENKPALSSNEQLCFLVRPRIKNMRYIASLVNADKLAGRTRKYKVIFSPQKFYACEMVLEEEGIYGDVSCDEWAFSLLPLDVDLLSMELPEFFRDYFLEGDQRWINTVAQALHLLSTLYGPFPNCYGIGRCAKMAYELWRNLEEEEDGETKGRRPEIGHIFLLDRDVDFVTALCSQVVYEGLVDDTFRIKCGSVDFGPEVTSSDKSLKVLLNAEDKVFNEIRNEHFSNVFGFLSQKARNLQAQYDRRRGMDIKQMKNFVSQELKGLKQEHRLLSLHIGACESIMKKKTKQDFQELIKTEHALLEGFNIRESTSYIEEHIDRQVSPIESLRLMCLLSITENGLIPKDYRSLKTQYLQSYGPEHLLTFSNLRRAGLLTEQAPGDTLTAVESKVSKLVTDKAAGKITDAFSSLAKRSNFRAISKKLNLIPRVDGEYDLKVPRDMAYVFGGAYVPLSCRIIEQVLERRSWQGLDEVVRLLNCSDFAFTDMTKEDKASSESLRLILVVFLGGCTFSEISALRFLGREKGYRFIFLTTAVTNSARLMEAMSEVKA

T2: HA-tagged VPS33B (human, UniProt Q9H267 1-617)
T2 sequence (looked up): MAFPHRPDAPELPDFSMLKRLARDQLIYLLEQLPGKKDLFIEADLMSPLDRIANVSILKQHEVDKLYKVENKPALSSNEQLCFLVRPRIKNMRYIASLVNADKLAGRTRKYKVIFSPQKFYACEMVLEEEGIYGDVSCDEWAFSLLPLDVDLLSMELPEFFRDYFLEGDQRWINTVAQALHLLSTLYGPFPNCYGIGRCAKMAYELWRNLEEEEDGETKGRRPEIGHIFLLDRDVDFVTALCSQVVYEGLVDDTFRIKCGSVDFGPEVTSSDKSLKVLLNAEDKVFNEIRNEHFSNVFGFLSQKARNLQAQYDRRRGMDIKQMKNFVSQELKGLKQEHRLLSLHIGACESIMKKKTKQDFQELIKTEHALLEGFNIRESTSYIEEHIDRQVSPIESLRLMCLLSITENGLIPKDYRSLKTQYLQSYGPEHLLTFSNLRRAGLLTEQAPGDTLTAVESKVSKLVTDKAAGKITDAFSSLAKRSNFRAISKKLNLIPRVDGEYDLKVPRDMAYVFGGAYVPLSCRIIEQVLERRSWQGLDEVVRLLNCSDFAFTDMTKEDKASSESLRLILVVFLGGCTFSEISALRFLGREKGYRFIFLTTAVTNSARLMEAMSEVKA

T3: HA-tagged VPS33A (UniProt Q96AX1 1-596)
T3 sequence (looked up): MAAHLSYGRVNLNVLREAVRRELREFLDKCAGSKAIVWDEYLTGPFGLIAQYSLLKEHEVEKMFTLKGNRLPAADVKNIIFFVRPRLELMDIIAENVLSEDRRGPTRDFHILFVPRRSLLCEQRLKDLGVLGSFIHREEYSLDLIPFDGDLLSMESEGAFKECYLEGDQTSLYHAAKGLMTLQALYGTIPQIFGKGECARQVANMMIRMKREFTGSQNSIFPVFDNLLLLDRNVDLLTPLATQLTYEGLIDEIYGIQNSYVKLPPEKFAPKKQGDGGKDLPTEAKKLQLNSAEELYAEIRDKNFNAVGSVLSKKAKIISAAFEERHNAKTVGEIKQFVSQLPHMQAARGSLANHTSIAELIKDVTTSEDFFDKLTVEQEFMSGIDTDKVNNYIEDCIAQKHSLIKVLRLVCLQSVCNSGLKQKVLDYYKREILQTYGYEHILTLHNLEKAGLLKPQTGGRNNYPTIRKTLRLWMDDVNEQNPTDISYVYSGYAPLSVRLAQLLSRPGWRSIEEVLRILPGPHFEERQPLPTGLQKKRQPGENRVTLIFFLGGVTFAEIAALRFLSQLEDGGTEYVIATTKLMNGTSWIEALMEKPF


What was measured:
Assay in all cases: co-IP
[1] = target: T1, HA-tagged VPS33B (L30P) mutant
[2] = target: T2, HA-tagged VPS33B
[3] = target: T3, HA-tagged VPS33A

| Binder | percent of the Myc-tagged input recovered [1] | percent of the Myc-tagged input recovered [2] | percent of the Myc-tagged input recovered [3] |
| --- | --- | --- | --- |
| Myc-tagged VIPAR (natural protein, human, UniProt Q9H9C1 1-493, looked up) MNRTKGDEEEYWNSSKFKAFTFDDEDDELSQLKESKRAVNSLRDFVDDDDDDDLERVSWSGEPVGSISWSIRETAGNSGSTHEGREQLKSRNSFSSYAQLPKPTSTYSLSSFFRGRTRPGSFQSLSDALSDTPAKSYAPELGRPKGEYRDYSNDWSPSDTVRRLRKGKVCSLERFRSLQDKLQLLEEAVSMHDGNVITAVLIFLKRTLSKEILFRELEVRQVALRHLIHFLKEIGDQKLLLDLFRFLDRTEELALSHYREHLNIQDPDKRKEFLKTCVGLPFSAEDSAHIQDHYTLLERQIIIEANDRHLESAGQTEIFRKHPRKASILNMPLVTTLFYSCFYHYTEAEGTFSSPVNLKKTFKIPDKQYVLTALAARAKLRAWNDVDALFTTKNWLGYTKKRAPIGFHRVVEILHKNNAPVQILQEYVNLVEDVDTKLNLATKFKCHDVVIDTYRDLKDRQQLLAYRSKVDKGSAEEEKIDALLSSSQIRWKN | 23.8% | 28.6% |  |
| Myc-tagged VPS16 (natural protein, human, UniProt Q9H269 1-839, looked up) MDCYTANWNPLGDSAFYRKYELYSMDWDLKEELRDCLVAAAPYGGPIALLRNPWRKEKAASVRPVLDIYSASGMPLASLLWKSGPVVSLGWSAEEELLCVQEDGAVLVYGLHGDFRRHFSMGNEVLQNRVLDARIFHTEFGSGVAILTGAHRFTLSANVGDLKLRRMPEVPGLQSAPSCWTVLCQDRVAHILLAVGPDLYLLDHAACSAVTPPGLAPGVSSFLQMAVSFTYRHLALFTDTGYIWMGTASLKEKLCEFNCNIRAPPKQMVWCSRPRSKERAVVVAWERRLMVVGDAPESIQFVLDEDSYLVPELDGVRIFSRSTHEFLHEVPAASEEIFKIASMAPGALLLEAQKEYEKESQKADEYLREIQELGQLTQAVQQCIEAAGHEHQPDMQKSLLRAASFGKCFLDRFPPDSFVHMCQDLRVLNAVRDYHIGIPLTYSQYKQLTIQVLLDRLVLRRLYPLAIQICEYLRLPEVQGVSRILAHWACYKVQQKDVSDEDVARAINQKLGDTPGVSYSDIAARAYGCGRTELAIKLLEYEPRSGEQVPLLLKMKRSKLALSKAIESGDTDLVFTVLLHLKNELNRGDFFMTLRNQPMALSLYRQFCKHQELETLKDLYNQDDNHQELGSFHIRASYAAEERIEGRVAALQTAADAFYKAKNEFAAKATEDQMRLLRLQRRLEDELGGQFLDLSLHDTVTTLILGGHNKRAEQLARDFRIPDKRLWWLKLTALADLEDWEELEKFSKSKKSPIGYLPFVEICMKQHNKYEAKKYASRVGPEQKVKALLLVGDVAQAADVAIEHRNEAELSLVLSHCTGATDGATADKIQRARAQAQKK |  |  | 28.2% |
